Results from article PMC3072145.

What was measured:
[1] = molecular target: Hfq-65 (Escherichia coli, UniProt P0A6X3 1-65, del66-102); assay: EMSA
[2] = molecular target: Hfq-75 (Escherichia coli, UniProt P0A6X3 1-75, del76-102); assay: EMSA

Binder: AAAAAAAAAAAAAAAAAA (ssRNA) [rA18]
- binding result [1]: binds
- binding result [2]: binds
